# Source: publication PMC8809517, “Cofactor-independent RNA editing by a synthetic S-type PPR protein”
# How the values were obtained:
# Assay in all cases: high-throughput RNA pulldown from lysate on Ni-NTA beads; HRP: 50 mM Tris pH 8, 150 mM NaCl, 1 mM beta-mercaptoethanol, 50 ug/ml BSA, 3 ug/ml yeast RNA, 0.5% heparin; ITC and FP: Tris pH 8, 200 mM KCl, 5% glycerol; MST: 50 mM Tris pH 8, 200 mM NaCl, 1 mM DTT, BSA, heparin, 0.05% Tween 20
# Conditions in all cases: tags: N-terminal His-eGFP
# [1] = molecular target: T1, GFP-9S library array, motif 4 ND N98V;D124I (synthetic construct, N98V;D124I)
# T1 chain: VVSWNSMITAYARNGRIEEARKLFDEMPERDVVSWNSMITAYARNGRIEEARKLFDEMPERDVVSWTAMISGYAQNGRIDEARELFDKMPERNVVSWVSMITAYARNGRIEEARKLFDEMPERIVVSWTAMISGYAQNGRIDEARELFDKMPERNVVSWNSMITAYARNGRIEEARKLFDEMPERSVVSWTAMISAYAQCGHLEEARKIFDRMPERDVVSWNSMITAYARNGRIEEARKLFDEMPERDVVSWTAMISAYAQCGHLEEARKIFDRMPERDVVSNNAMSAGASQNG
# [2] = molecular target: T2, GFP-9S library array, motif 4 ND N98A;D124C (synthetic construct, N98A;D124C)
# T2 chain: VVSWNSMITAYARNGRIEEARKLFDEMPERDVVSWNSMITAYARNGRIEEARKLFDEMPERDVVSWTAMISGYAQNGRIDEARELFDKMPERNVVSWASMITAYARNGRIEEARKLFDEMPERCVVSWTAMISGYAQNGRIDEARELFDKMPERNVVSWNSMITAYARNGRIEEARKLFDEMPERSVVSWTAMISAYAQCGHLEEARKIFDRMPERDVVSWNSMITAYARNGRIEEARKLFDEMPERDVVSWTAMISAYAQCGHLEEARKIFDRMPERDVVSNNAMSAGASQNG
# [3] = molecular target: T3, GFP-9S library array, motif 4 ND N98D;D124A (synthetic construct, N98D;D124A)
# T3 chain: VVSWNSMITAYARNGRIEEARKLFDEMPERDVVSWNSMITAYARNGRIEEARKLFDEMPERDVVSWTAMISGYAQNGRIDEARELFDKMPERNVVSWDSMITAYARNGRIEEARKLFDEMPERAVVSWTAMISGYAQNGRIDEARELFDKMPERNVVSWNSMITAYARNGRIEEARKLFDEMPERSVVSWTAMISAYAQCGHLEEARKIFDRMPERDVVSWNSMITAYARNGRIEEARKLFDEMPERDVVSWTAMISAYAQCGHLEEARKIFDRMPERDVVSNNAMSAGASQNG
# [4] = molecular target: T4, GFP-9S library array, motif 4 ND D124W (synthetic construct, D124W)
# T4 chain: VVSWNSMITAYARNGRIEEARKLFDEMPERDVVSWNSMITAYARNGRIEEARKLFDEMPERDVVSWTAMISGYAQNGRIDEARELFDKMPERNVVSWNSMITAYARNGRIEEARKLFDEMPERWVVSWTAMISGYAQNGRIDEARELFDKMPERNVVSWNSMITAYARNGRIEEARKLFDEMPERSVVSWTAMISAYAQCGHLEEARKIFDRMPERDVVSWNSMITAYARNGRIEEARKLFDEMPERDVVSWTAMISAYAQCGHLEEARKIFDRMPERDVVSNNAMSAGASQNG
# [5] = molecular target: T5, GFP-9S library array, motif 4 ND N98W;D124V (synthetic construct, N98W;D124V)
# T5 chain: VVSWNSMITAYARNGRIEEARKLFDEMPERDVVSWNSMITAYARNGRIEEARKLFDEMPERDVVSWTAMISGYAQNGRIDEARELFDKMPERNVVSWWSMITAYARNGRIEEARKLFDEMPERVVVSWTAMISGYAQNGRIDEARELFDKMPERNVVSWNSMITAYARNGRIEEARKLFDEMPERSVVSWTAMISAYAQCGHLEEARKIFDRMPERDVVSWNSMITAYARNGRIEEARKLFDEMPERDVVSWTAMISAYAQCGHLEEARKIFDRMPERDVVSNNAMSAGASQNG
Binder,Kd ([1]; label: 5' Cy5) [nM],Kd ([2]; label: 5' Cy5) [nM],Kd ([3]; label: 5' Cy5) [nM],Kd ([4]; label: 5' Cy5) [nM],Kd ([5]; label: 5' Cy5) [nM],Kd ([1]; label: 5' IRDye 800CW) [nM],Kd ([2]; label: 5' IRDye 800CW) [nM],Kd ([3]; label: 5' IRDye 800CW) [nM],Kd ([4]; label: 5' IRDye 800CW) [nM],Kd ([5]; label: 5' IRDye 800CW) [nM]
AUUAGACGUGA (ssRNA) [Cy5-rpoA-G],163,73.1,114,89.4,50.8,–,–,–,–,–
AUUACACGUGA (ssRNA) [Cy5-rpoA],121,112,103,78.7,41.1,–,–,–,–,–
AUUAUACGUGA (ssRNA) [IR-rpoA-U],–,–,–,–,–,205,92.2,174,210,100
AUUAAACGUGA (ssRNA) [IR-rpoA-A],–,–,–,–,–,384,163,233,164,95.6
